Experiment [1] deals with human Gremlin-1 (huGREM1), recombinant protein (human) (UniProt O60565). Put plainly: cell-based or functional assay.
For experiment [2] the target is unchanged. Briefly: binding ELISA on huGREM1, hybridoma clone selection.

Where only a bound is given, the exact number is not on record here.

This passage reports EC50, in vitro Gremlin-1 neutralization assay (ALP activity in ATDC5 cells) and OD 492 nm results from patent publication US20250270302A1.

UniProt O60565, sequence (O60565 25-184 limits assumed): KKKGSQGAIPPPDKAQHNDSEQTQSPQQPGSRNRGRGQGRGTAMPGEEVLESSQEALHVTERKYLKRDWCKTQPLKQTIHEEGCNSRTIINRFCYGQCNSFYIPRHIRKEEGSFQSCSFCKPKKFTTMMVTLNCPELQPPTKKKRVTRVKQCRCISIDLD

B1: anti-Gremlin-1 antibody 14-D10-2 (antibody, from a related filing, IgG2b, V domains shown)
VH: EVQLQQSGPELVKPGASVKISCKASGYSFTGYYMHWVKQSHGNILDWIGYFFPYNGFSNCNQKFKGKATLTVDKSSSTAYMELRSLTSEDSAVYYCARGGLGRGYFDVWGTGTTVTVSS
VL: DIQMTQSPSYLSVSLGGRVTITCKASDHINNWLAWYQQKPGNAPRLLISGATSLETGVPSRFSGSGSGKDYTLSITSLQTEDVATYYCQQYWSSPRTFGGGTKLEIK
Take B1: the EC50, in vitro Gremlin-1 neutralization assay (ALP activity in ATDC5 cells) in experiment [1] came to 26.4 nM. In addition, in experiment [2], the OD 492 nm is greater than 0.9 OD 492 nm.
